Reference: US20210047373A1, “BETA BARREL POLYPEPTIDES AND METHODS FOR THEIR USE” (UNIVERSITY OF WASHINGTON, priority 2018, published 2021)
Numbering of substitutions follows the chain as printed. “And” between values parts separate entries of the source, which are not always exact repeats. Identical values can stand only once. Like-named read-outs stand apart in the source and are kept apart here. Marks after values point to notes of the source that are not given here.

Columns and labels:
[1] = unbound, free DFHBI in liquid buffer; Paige et al., 2011; cited from earlier work
[2] = cited from earlier work
[3] = Photophysical characterization (absorbance, excitation, emission, extinction coefficient, quantum yield); type: physicochemical
[4] = tested on: E. coli, yeast, and mammalian cells; test: Confocal imaging of cells expressing mFAPs with DFHBI; type: cell-based; conditions: 20 μM DFHBI
Description: To determine whether the designed DFHBI-binding fluorescence-activating proteins function in living cells, we imaged mFAP1- and mFAP2-DFHBI complexes in E. coli, yeast, and mammalian cells by confocal microscopy. […] The quantum yield of mFAP1 and mFAP2 in complex with DFHBI is 2.0% and 2.1% respectively (Table 2).
Confocal image acquisition. Mammalian cell imaging of mFAP1 and mFAP2 was performed in NIH3T3 cells (Flp-In-3T3, Thermo Fisher Scientific, Inc). NIH3T3 cells were cultured in high-glucose DMEM, 4 mM L-glutamine, 10% fetal bovine serum (FBS, Life Technologies, Inc) at 37 degrees Celsius, 5% CO2. Cells were plated at 4×10^4 cells/mL in 35 mm glass-bottomed dishes (Matek, Inc) that were coated with poly-D-lysine. Cells were transfected 24 hours after plating with Lipofectamine™ 3000 (Thermo Fisher Scientific, Inc) at a ratio of 3 μL reagent:1 μL DNA, according to manufacturer's instructions, with […] plasmids of mFAPs or mFAP fusions (1.25 μg mCherry™ plasmid was added to the cytosolic constructs as a transfection control). Right before imaging, cell media was replaced with FluorBrite™ DMEM (Thermo Fisher Scientific, Inc) media supplemented with GlutaMax™ (Thermo Fisher Scientific, Inc) and 10% v/v FBS, and 20 μM DFHBI. […] A white light laser of 488 was used to excite the DFHBI and detected by a HyD detector, over a range of 495-550 nm. […]

[5] = Fluorescence activation / brightness with DFHBI; type: biochemical; conditions: normalized 0 to 1 across all three chromophores; average ± SD of two protein concentrations
Description: (§1) Fluorescence binding assay. Protein-activated DFHBI fluorescence signals were measured in 96-well plate format (Corning 3650) on a Synergy neo2 plate reader (BioTek, Inc) with λex=450 nm or 460 nm and λem=500 nm or 510 nm. Binding reactions were performed at […] in PBS pH7.4 buffer. Protein concentrations were determined by 280 nm absorbance as described above. DFHBI (Lucerna, Inc) were resuspended in DMSO as instructed to make 100 mM stock and diluted in PBS to 0.5-10 μM. Approximate emission spectra were recorded for active designs from 490 to 600 nm.
(§2) Table 3A-C. Brightness and chromophore affinities of selected mFAP variants. Fluorescence brightness measurements at 10 μM (top table) and 100 nM (middle table) chromophore concentrations were normalized from 0 to 1 across all three chromophores (DFHBI, DFHBI-1T, and DFHO), and the normalized values for two protein concentrations tested for each chromophore at each chromophore concentration were averaged and standard deviations of the average computed. Reported values are the normalized averages and standard deviations of the means for each chromophore concentration and each chromophore. Reported relative densitometry values are the relative densitometry values normalized from 0 to 1 and represent how well each design expresses relative to one another in Lemo21(DE3) E. coli cultures. Thermodynamic dissociation constants (bottom table) are obtained by non-linear least squares fitting of chromophore titrations (n=1) to a single binding site isotherm, and values reported with the standard deviation of the fit. Where the obtained Kd values are below the protein concentration tested, the Kd and standard deviation of the fit are reported in parentheses. Values with “N/D” were not determined.

[6] = Chromophore titration, fit to single binding site isotherm: DFHO; conditions: n=1 titration; ± SD of the fit; Table 3C
Description: as §2

[7] = Chromophore titration, fit to single binding site isotherm: DFHBI
Description: as §1, §2

[8] = Fluorescence brightness with DFHO; type: biochemical; conditions: normalized 0 to 1 across all three chromophores; average ± SD of two protein concentrations
Description: as §2

[9] = Fluorescence brightness with DFHBI-1T; type: biochemical; conditions: normalized 0 to 1 across all three chromophores; average ± SD of two protein concentrations
Description: as §2

[10] = Chromophore titration, fit to single binding site isotherm: DFHBI-1T; conditions: n=1 titration; ± SD of the fit; Table 3C
Description: as §2

[11] = pH-dependent fluorescence of mFAP/DFHBI complexes; type: biochemical
Text: FIG. 22: In vitro characterization of the pH-responsive mFAP_pH and comparison to the existing pHRed system and pH-unresponsive mFAP2b. (a-c) Chemical basis of pH-responsiveness in mFAP_pH. (a) Chemical structures of protonated tautomers and deprotonated resonance structures of DFHBI. […] The arrangement of intermolecular hydrogen bonds in the binding site of mFAP2b (c, binding pocket of the design model with the phenolate form of DFHBI) has low shape complementarity to the protonated DFHBI tautomers. The mutations W27M and W93F improve binding to the protonated DFHBI tautomers (b, model of mFAP_pH binding pocket with the phenolic form of DFHBI). […] (d) Normalized fluorescence excitation spectra of the mFAP_pH/DFHBI complex are shown for a pH titration from pH 3.63 to pH 8.38. (e) mFAP_pH normalized fluorescence emission spectra at pH 3.63 and pH 8.38. […] (f) Binding of mFAP_pH to both the phenolic and phenolate forms of DFHBI results in a high fluorescence ratio fold-change from low to high pH. (h, i) pH-dependent fluorescence of the mFAPpH/DFHBI complex compared to the previously described pHRed system. […] (i) Fluorescence ratios (Fratio) of unnormalized fluorescence measurements from panel (h) for mFAP_pH and pHRed. […]
We sought to further improve fluorescence of the complex at acidic and neutral pH and built a site-directed mutagenesis (SDM) library at 15 positions of mFAP2.1. […]

[12] = Circular dichroism, thermal and GuHCl denaturation; type: physicochemical; conditions: CD in the absence of DFHBI, pH 2.93
Description: Circular dichroism (CD). Purified protein samples were prepared at 0.5 mg/ml in 20 mM Tris buffer (150 mM NaCl, pH8.0) or PBS buffer (25 mM phosphate, 150 mM NaCl, pH7.4). Wavelength scans from 195 nm to 260 nm were recorded at 25 degrees Celsius, 75 degrees Celsius, 95 degrees Celsius and cooling back to 25 degrees Celsius. Thermal denaturation was monitored at 220 nm or 226 nm from 25 degrees Celsius to 95 degrees Celsius. Near-UV wavelength scan from 240 nm to 320 nm and tryptophan fluorescence emission were recorded in the absence and presence of 5M guanidinium chloride (GuHCl). Chemical denaturation in GuHCl was monitored by both tryptophan fluorescence and near-UV CD signal at 285 nm. The concentration of the GuHCl stock solution was measured with a refractometer (Spectronic Instruments, Inc). Far-UV CD experiments were performed on an AVIV model 420 CD spectrometer (Aviv Biomedical, Inc). Near-UV CD and tryptophan fluorescence experiments were performed on a Jasco J-1500 CD spectrometer (Jasco, Inc). Protein concentrations were determined by 280 nm absorbance with a NanoDrop™spectrophotometer (ThermoScientific, Inc). Melting temperatures were estimated by smoothing the sparse data with a Savitsky-Golay filter of order 3 and approximating the smoothed data with a cubic spline to compute derivatives. Reported Tm values are the inflection points of the melting curves.

[13] = previously reported value, Table 4
[14] = n=1 titration, ± SD of the fit, Table 3C, read-out: DFHBI Kd

## CC1=N/C(=C\c2cc(F)c(O)c(F)c2)C(=O)N1C [DFHBI, (Z)-4-(3,5-difluoro-4-hydroxybenzylidene)-1,2-dimethyl-1H-imidazol-5(4H)-one]
[1]
  pKa: 5.5
[2]; previously reported value [1], Table 4
  Absolute Quantum Yield: 0.001^#
[2]; [13]
  λabs: 418^†# nm
  λem: 489^† nm
  λex: 423^† nm
[2]; previously reported value
  Reported Quantum Yield: 0.0007^†
[2]; reported value (ref 25), Table 2
  Relative Quantum Yield: 0.0007***
[3]; Table 2
  Extinction Coefficient: 31,935 M^−1cm^−1
[3]; integrating sphere, Table 2
  Absolute Quantum Yield: 0.001
[3]; peak absorbance wavelength, Table 2
  λabs: 418 nm

B1: mFAP2: SEQ ID NO:38; variant of b11L5F.1 with 6-residue insertion in the seventh β-turn (protein)
chain: MSRAAQLLPGTWQVTMTNEDGQTSQGQMHFQPRSPYTMDVVAQGTISDGRPISGYGKVTVKTPDTLDVDITYPSLGNIKAQGQITMDSPTQFKFDATTKGAGNFTGRLTGTLQRQE
modifications: (1)..(1) optionally absent
[4]
  In vivo fluorescence activation: showed in vivo fluorescence activation
[5]
  Fluorescence brightness, 100 nM DFHBI: 0.12 ± 0.0
  Fluorescence brightness, 10 μM DFHBI: 0.14 ± 0.03
[6]
  Kd: 22.7 ± 9.66 µM
[7]; [14]
  Kd: 1.15 ± 0.16 µM
[7]; read-out: Dissociation constant of DFHBI
  Kd: ~0.2 µM and ~0.18 µM
[8]
  Fluorescence brightness, 100 nM DFHO: 0.01 ± 0.0
  Fluorescence brightness, 10 μM DFHO: 0.01 ± 0.0
[9]
  Fluorescence brightness, 100 nM DFHBI-1T: 0.15 ± 0.01
  Fluorescence brightness, 10 μM DFHBI-1T: 0.33 ± 0.04
[10]
  Kd: 43.2 ± 7.01 µM
[3]; absolute
  Quantum yield in complex with DFHBI: 2.1%

B2: mFAP2.2: SEQ ID NO:41 (protein)
chain: B1 chain with S53V
modifications: (1)..(1) optionally absent
[5]
  Fluorescence brightness, 100 nM DFHBI: 0.13 ± 0.0
  Fluorescence brightness, 10 μM DFHBI: 0.17 ± 0.03
[6]
  Kd: 22.7 ± 9.66 µM
[7]; [14]
  Kd: 1.15 ± 0.16 µM
[11]; across pH 3.66-7.36
  Fluorescence ratio fold-change, higher than mFAP2.1: ~1.3 fold
[8]
  Fluorescence brightness, 100 nM DFHO: 0.01 ± 0.0
  Fluorescence brightness, 10 μM DFHO: 0.01 ± 0.0
[9]
  Fluorescence brightness, 100 nM DFHBI-1T: 0.33 ± 0.02
  Fluorescence brightness, 10 μM DFHBI-1T: 0.55 ± 0.02
[10]
  Kd: 43.2 ± 7.01 µM

B3: mFAP2.1: SEQ ID NO:40 (protein)
chain: B1 chain with P51T, S53V
modifications: (1)..(1) optionally absent
[5]
  Fluorescence brightness, 100 nM DFHBI: 0.13 ± 0.0
  Fluorescence brightness, 10 μM DFHBI: 0.07 ± 0.02
[12]
  Stability at low pH: improved stability
[11]; pH 3.66
  Fluorescence in the presence of DFHBI at acidic pH: higher fluorescence
[8]
  Fluorescence brightness, 100 nM DFHO: 0.01 ± 0.0
  Fluorescence brightness, 10 μM DFHO: 0.01 ± 0.0
[9]
  Fluorescence brightness, 100 nM DFHBI-1T: 0.34 ± 0.01
  Fluorescence brightness, 10 μM DFHBI-1T: 0.25 ± 0.01
